In paper doi:10.1101/2023.11.02.565309 (bioRxiv, 2023):

Molecular target: the molecule itself
Test: crystal structure

B1: ligand-binding domain of GluK2 (GluK2-LBD), S1-GT-S2 construct (domain or fragment, Rattus norvegicus)
chain: NRSLIVTTILEEPYVLFKKSDKPLYGNDRFEGYCIDLLRELSTILGFTYEIRLVEDGKYGAQDDVNGQWNGMVRELIDHKADLAVAPLAITYVREKVIDFSKPFMTLGISILYRKGTPIDSADDLAKQTKIEYGAVEDGATMTFFKKSKISTYDKMWAFMSSRRQSVLVKSNEEGIQRVLTSDYAFLMESTTIEFVTQRNCNLTQIGGLIDSKGYGVGTPMGSPYRDKITIAILQLQEEGKLHMMKEKWWRGNGCP
With B1 the “stoichiometry N” value was 2.
